Laboratory results: US20170073664A1

Columns and labels:
Test in all cases: cell_activity
eGFP-TALEN-18-Left = settings: pair; clone 6F HEK293; control 324; 95.6% positive in flow
[1] = system: AAVS original TALEN right; settings: pair with left TALEN, HEK293F, 300 ng donor; control 111
[2] = system: AAVS-SBI TALEN right (pZT-AAVS1 R1); settings: pair with left TALEN, 300 ng donor; control 111
AAVS original TALEN left = settings: pair with right TALEN, HEK293F, 300 ng donor; control 111
eGFP-TALEN-18-right = settings: pair; clone 6F HEK293; control 324; 95.6% positive in flow
[3] = system: AAVS-SBI TALEN left (pZT-AAVS1 L1); settings: pair with right TALEN, 300 ng donor; control 111

Question: For “TCCACCGGTCGCCA (double strand) [eGFP TALEN left half-site]”, which activity (blasticidin colonies per 10^6 cells) (eGFP-TALEN-18-Left) is on record?
Answer: 1080

Question: For “TTTTCTGTCACCAATCCT (double strand) [AAVS right TALEN half-site]”, which activity (blasticidin-resistant colonies) [1] is on record?
Answer: 1420

Question: And the activity (blasticidin-resistant colonies) [2]?
Answer: 2800

Question: With “TCCCCTCCACCCCACAGT (double strand) [AAVS left TALEN half-site]” as the sequence, how does the activity (blasticidin-resistant colonies) (AAVS original TALEN left) read?
Answer: 1420

Question: “CGAGGAGCTGTTCA (double strand) [eGFP TALEN right half-site (TALEN reads complement)]” was tested. Which activity (blasticidin colonies per 10^6 cells) (eGFP-TALEN-18-right) did it give?
Answer: 1080

Question: For “CCCCTCCACCCCACAGT (double strand) [AAVS left half-site without first T]”, which activity (blasticidin-resistant colonies) [3] is on record?
Answer: 2800
